The supplement of paper PMC12764529
± gives the half width of the 95% confidence interval.

Test: folding stability dG unfold from trypsin proteolysis; higher = more stable
Method in brief: (§1)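 Sequencing followed digestion of designed mini-proteins with trypsin and chymotrypsin, each at 11 concentrations in threefold dilutions together with a no-protease condition. The mini-proteins were under 80 residues, had no cysteine, sat in a PA-tagged cDNA display construct, and were kept only if AlphaFold2 dimer inter-PAE was above 15. From the counts, Bayesian fitting gave K50, and unfolding free energy was derived against a sequence-predicted unfolded-state K50 and a shared folded-state K50, per protease or combined.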

Sequence | folding stability dG unfold [kcal/mol]
SAGGSAGGSMLPADTKVIKITVESTLPDGSTTTHTVTVPSSVPLEAVKEQLPPGATITEVVLASAGGSAGGS [r12_597_JUSTAS] | 1.44 ± 0.064
SGKVVATVPLPDGTVITVEVSPDNTVRVTVVRYRLVPNSTAPAVEVRTYTFPLPPGNPPSIQDVLDRVLSSA [r9_614_TrMRF] | 4.05 ± 0.14
SAGGSAGGSAGGMKIIKLEDDYYLIPFDSPEQLKAYTDIFEKLGLPVVVLPDGRLLVKGSAGGSAGGSAGGS [r10_1027_TrMRF] | 2.39 ± 0.053
SAGGSAGGSAGKPEFELIAKIEVNGKTYYILRNKETGEYLIYDLDTGKKYTIRKDDPNLLSAGGSAGGSAGG [r11_1007_TrROS_Hall] | 2.47 ± 0.16
SAGKKKVLLAVDPENNALVLVEYETVGDVTFVRSLVFHGNTTTETLGLVRVIEPGKTEKLLISVPIPPSAGG [r19_292_TrMRF] | 2.07 ± 0.047
SAGMVRIERDGDELLIEFEFPEDEPEAVRALIEAIESLGLEVVEAEIEAEPGEGDLRRVRLRFKIKPLESAG [r5_739_TrMRF] | 3.95 ± 0.22
SAGGSAGGSAGKLPEGMKMEVRPKTIFNEDGYMIKITIIRAPDPNILAINIEIIPPGDPISAGGSAGGSAGG [r11_338_TrROS] | 2.04 ± 0.12
SAGSSETYSFKSPEEAKKKLKEEYGVSVEELPGNRVRINLVLDNKPVVVLIDTSTNLATVVSPEVVERKSAG [r14_402_JUSTAS] | -0.219 ± 0.21
SAGGSAGGMKIEPIAEDEDYIVVRVEPDLPELLEELGLEVVGVEEEGDYVIVVVKVPPEVREKFSAGGSAGG [r6_108_TrMRF] | 0.649 ± 0.022
SAGGSAGGSAGAPPDVEEVTVTVTITNPDGSTTTTTVTATPEELAALAAAPGRPTAVSAESAGGSAGGSAGG [r17_313_JUSTAS] | 0.635 ± 0.072
SAGKPKVIFIEGMTKEQLRAAIDEAKKKLKPGDIIVVRSKEAADALKELLPDLTVYLVDEETKEVKKLPSAG [r5_391_TrROS_Hall] | 1.91 ± 0.14
SKKKKKKTIKIKITIKVEKEVKIRIIYNGKEKEITIKPGETKTIEITFPAGKVIIEIYKDGKPIKKIEIKSA [r9_411_TrROS_Hall] | 2.94 ± 0.092
SSSTVTVTVTFPDGTVVTVDFTGSLAEVEAAVREWVRQYAAEQGLDPREVRVTITFADDGTTRERTLPLRSA [r9_1193_JUSTAS] | 0.921 ± 0.043
SAGGSAGGMVRFDPAGGRLFLDGVPVELSEVLSVESLEEEGRVRVEALLVDGSRLEFEIPKEALSAGGSAGG [r6_682_JUSTAS] | 1.73 ± 0.036
SMDIKVTKLPDGSYRITASVPPDTKPITIPVPKTGKPVVITTEPGKLTVTTDDEEVVKEVAEAIKKGELLSA [r9_515_JUSTAS] | 0.951 ± 0.066
SAGGSAGGSEVEITVTETEDTVTVTIRFKDTGKTVTITVPKDMTPEEVLARAKELLKKLGIEPSAGGSAGGS [r12_764_TrROS_Hall] | 3.91 ± 0.18
SAGGSAGGSAPEVKIKVELFENENGELTATATIEVDGKLYKITVKFDKNGKIVEVKIEELPSAGGSAGGSAG [r3_165_TrROS_Hall] | 2.83 ± 0.22
SAGGSAGGSAGGSKFLVKTSVEVFKNPVGGNRYGAKITTLAVNPDTNEVTLSESYLPLDLSAGGSAGGSAGG [r7_216_TrMRF] | 0.114 ± 0.11
SAGMIRIIVDGKEVEEIEMSEEELRALLADPNIKKARVFVNGEEKEVEVKEGEIKEKLPPGAVIRIEKSAGG [r19_152_TrROS_Hall] | 1.45 ± 0.061
SAGGKPNEKVKIKIKNKDGSEETIEIKVDEEVKIKIKFNGEEKEITIKKGETLTITLENAEIEVEKVSAGGS [r16_456_TrROS_Hall] | 1.95 ± 0.16
SAMMKAEIVEIKFDPKTKKLTIKFPDGSKLEIKPGETIKIKIKVTVFNEETGKLEEKEITLTLKLPEGLSAG [r14_366_TrROS_Hall] | 2.31 ± 0.27

Sequence | folding stability dG unfold [kcal/mol]
SAGGSAGGSAGPPPIEELLEQAKKNPNRPITIRNPGGYYIRITVKPDPNGKPEVEIEPVPSAGGSAGGSAGG [r11_300_TrROS] | 0.259 ± 0.09
SAGGSAKKVIVIEVKPGEKITITINGKKVEIVEVKPEGETFLIRNKDTGEIYKITVVDGKVVIEKLSAGGSA [r15_235_TrROS_Hall] | 2.43 ± 0.09
SAGGSAGGSAGMVDKKTGKPVEKVKVIIRNKNGKKEEKEVTLEELKELAENLPYEIEFEKSAGGSAGGSAGG [r17_125_TrROS_Hall] | 1.16 ± 0.079
SAGMEIKYTITVSLSSGQTLGTKTITDPGKSIEEIVKEFAKIPGLTLITVTVTNPDGTPTTVTIPVNPSAGG [r19_269_JUSTAS] | 2.24 ± 0.059
SAGGSAGGSAGGMVTVETAPAPEGTERVIRVTFLEVNPEDGTIVRPATLTFVVPPGDPLSAGGSAGGSAGGS [r10_86_TrMRF] | 0.397 ± 0.066
SAGMPGKIRVEVEAEISEDNVIKLKIKIYGPDGELIDEIEAEIYLPVPPLSPSEGGGLIEAGNPELAEGSAG [r5_944_TrMRF] | 2.54 ± 0.2
SAGGSMTVVIVKLRPPDSPEVLYLPFRGRLPNGDWVPISLEELLEALEALPDLEVEEIIVAPPEEISAGGSA [r2_192_TrMRF] | 1.73 ± 0.16
SSLSIPGATKEEFEEIAEELEKKNPGVKVTVTYDPENGVITITITKPVKDKKGNLIGTETEVITITVTKPSA [r9_378_JUSTAS] | 3.05 ± 0.41
SAGGSAGGSAGGMAENLSPEQLRELAKELGLSEEDLEPGQVVRFRLPNGEVIEVRVEDESAGGSAGGSAGGS [r10_623_TrROS_Hall] | 1.29 ± 0.033
SAGGSAGGSAGWYFPIDELQKEHPNMSPETIADFFQKDGYKIEVEPVGPEPWVKIEPPEKSAGGSAGGSAGG [r11_707_TrROS] | 0.658 ± 0.07
SAGPKELAKQIKEIARELARAFHPNGQPMKMEVEIEPVSIDDENGWVRLKVKIRMPNRPVKFNITIPLKSAG [r5_53_TrROS] | 2.04 ± 0.07
SAGGSAESIPVDELVELAKKLGLDVTVTPLPETGLVRVEITFTTPDGSKVPATVLVHPDGRTTVFPSAGGSA [r15_1051_TrMRF] | 1.82 ± 0.038
MNIKVTSVLPDGTVVVTAEAPLPDGSSIRVTAARRGKDSYVLVTVNVYPTKVVADIKEVAPVSPGSPEEGGS [r1_53_TrMRF] | 2.21 ± 0.085
SAGGSAGGSMLTVKITLPNGEKIEIEIEAESEEEAKAAAEKLLEALREAGVSLEDVKVEVVEPSAGGSAGGS [r12_295_TrROS_Hall] | 4.46 ± 0.67
SAGGSAGGSKTVVITLPENEELGLEKLEELIEKVGPDAKIIISRWDPETGKVDYLVIETGEGKSAGGSAGGS [r12_913_TrMRF] | 1.02 ± 0.041
SAGGSAGGSAGGPLKLKVKLKLEFEVKDENGKTSKVELEVELEVELPEIVLDKNGKLLLSAGGSAGGSAGGS [r10_168_TrROS_Hall] | 2.42 ± 0.091
SAGGSAEEEVETVTLTVTVTVPPAPEVEVVSVEVERLPDGTLRVRAVVRLKDVPDRFVEVELTIRPSAGGSA [r15_627_TrROS_Hall] | 3.41 ± 0.12
SMLNIPSDWKVITIKLEYKVEPGVSEEEVKEKAIEELKKKFPKNTKIEVEVTPDPETGTVTIKITIIIKKSA [r9_657_JUSTAS] | 2.15 ± 0.062
SAAKIYILPGNNVILVRPPLPNGPFGELVIPTKPSELENPEFLKEIVDEIRKAGIPFEATILPPGVPPESAG [r14_60_TrMRF] | 0.426 ± 0.089
SAGGSAGGKIKVEIEYNGEKKEMTLDEIKALLKKNLPPNATIRVKKNGKTIPLKKVKVKKLKKKSAGGSAGG [r6_936_TrROS_Hall] | 1.08 ± 0.069

Test: folding stability dG unfold from chymotrypsin proteolysis; higher = more stable
Method in brief: as §1

Sequence | folding stability dG unfold [kcal/mol]
SAGGSAGGSMLPADTKVIKITVESTLPDGSTTTHTVTVPSSVPLEAVKEQLPPGATITEVVLASAGGSAGGS [r12_597_JUSTAS] | 0.931 ± 0.011
SGKVVATVPLPDGTVITVEVSPDNTVRVTVVRYRLVPNSTAPAVEVRTYTFPLPPGNPPSIQDVLDRVLSSA [r9_614_TrMRF] | 4.53 ± 0.053
SAGGSAGGSAGGMKIIKLEDDYYLIPFDSPEQLKAYTDIFEKLGLPVVVLPDGRLLVKGSAGGSAGGSAGGS [r10_1027_TrMRF] | 2.52 ± 0.026
SAGGSAGGSAGKPEFELIAKIEVNGKTYYILRNKETGEYLIYDLDTGKKYTIRKDDPNLLSAGGSAGGSAGG [r11_1007_TrROS_Hall] | 2.95 ± 0.066
SAGKKKVLLAVDPENNALVLVEYETVGDVTFVRSLVFHGNTTTETLGLVRVIEPGKTEKLLISVPIPPSAGG [r19_292_TrMRF] | 2.3 ± 0.05
SAGMVRIERDGDELLIEFEFPEDEPEAVRALIEAIESLGLEVVEAEIEAEPGEGDLRRVRLRFKIKPLESAG [r5_739_TrMRF] | 4.58 ± 0.083
SAGGSAGGSAGKLPEGMKMEVRPKTIFNEDGYMIKITIIRAPDPNILAINIEIIPPGDPISAGGSAGGSAGG [r11_338_TrROS] | 1.89 ± 0.14
SAGSSETYSFKSPEEAKKKLKEEYGVSVEELPGNRVRINLVLDNKPVVVLIDTSTNLATVVSPEVVERKSAG [r14_402_JUSTAS] | -0.291 ± 0.8
SAGGSAGGMKIEPIAEDEDYIVVRVEPDLPELLEELGLEVVGVEEEGDYVIVVVKVPPEVREKFSAGGSAGG [r6_108_TrMRF] | -0.0352 ± 0.11
SAGGSAGGSAGAPPDVEEVTVTVTITNPDGSTTTTTVTATPEELAALAAAPGRPTAVSAESAGGSAGGSAGG [r17_313_JUSTAS] | 0.486 ± 0.015
SAGKPKVIFIEGMTKEQLRAAIDEAKKKLKPGDIIVVRSKEAADALKELLPDLTVYLVDEETKEVKKLPSAG [r5_391_TrROS_Hall] | 2.1 ± 0.067
SKKKKKKTIKIKITIKVEKEVKIRIIYNGKEKEITIKPGETKTIEITFPAGKVIIEIYKDGKPIKKIEIKSA [r9_411_TrROS_Hall] | 3 ± 0.051
SSSTVTVTVTFPDGTVVTVDFTGSLAEVEAAVREWVRQYAAEQGLDPREVRVTITFADDGTTRERTLPLRSA [r9_1193_JUSTAS] | 2.42 ± 0.035
SAGGSAGGMVRFDPAGGRLFLDGVPVELSEVLSVESLEEEGRVRVEALLVDGSRLEFEIPKEALSAGGSAGG [r6_682_JUSTAS] | 2.323 ± 0.021
SMDIKVTKLPDGSYRITASVPPDTKPITIPVPKTGKPVVITTEPGKLTVTTDDEEVVKEVAEAIKKGELLSA [r9_515_JUSTAS] | 0.929 ± 0.087
SAGGSAGGSEVEITVTETEDTVTVTIRFKDTGKTVTITVPKDMTPEEVLARAKELLKKLGIEPSAGGSAGGS [r12_764_TrROS_Hall] | 3.75 ± 0.16
SAGGSAGGSAPEVKIKVELFENENGELTATATIEVDGKLYKITVKFDKNGKIVEVKIEELPSAGGSAGGSAG [r3_165_TrROS_Hall] | 4.39 ± 0.27
SAGGSAGGSAGGSKFLVKTSVEVFKNPVGGNRYGAKITTLAVNPDTNEVTLSESYLPLDLSAGGSAGGSAGG [r7_216_TrMRF] | 0.842 ± 0.13
SAGMIRIIVDGKEVEEIEMSEEELRALLADPNIKKARVFVNGEEKEVEVKEGEIKEKLPPGAVIRIEKSAGG [r19_152_TrROS_Hall] | 2.04 ± 0.031
SAGGKPNEKVKIKIKNKDGSEETIEIKVDEEVKIKIKFNGEEKEITIKKGETLTITLENAEIEVEKVSAGGS [r16_456_TrROS_Hall] | 1.83 ± 0.22
